In paper PMC8103107, “Myeloid‐resident neuropilin‐1 promotes choroidal neovascularization while mitigating inflammation” (EMBO Molecular Medicine, 2021):

T1: recombinant NRP1-derived trap consisting of the extracellular domain of NRP1 (UniProt O14786 22-856)
T1 construct: also called soluble NRP1; soluble receptor Neuropilin-1; source: purified recombinant
T1 sequence (looked up): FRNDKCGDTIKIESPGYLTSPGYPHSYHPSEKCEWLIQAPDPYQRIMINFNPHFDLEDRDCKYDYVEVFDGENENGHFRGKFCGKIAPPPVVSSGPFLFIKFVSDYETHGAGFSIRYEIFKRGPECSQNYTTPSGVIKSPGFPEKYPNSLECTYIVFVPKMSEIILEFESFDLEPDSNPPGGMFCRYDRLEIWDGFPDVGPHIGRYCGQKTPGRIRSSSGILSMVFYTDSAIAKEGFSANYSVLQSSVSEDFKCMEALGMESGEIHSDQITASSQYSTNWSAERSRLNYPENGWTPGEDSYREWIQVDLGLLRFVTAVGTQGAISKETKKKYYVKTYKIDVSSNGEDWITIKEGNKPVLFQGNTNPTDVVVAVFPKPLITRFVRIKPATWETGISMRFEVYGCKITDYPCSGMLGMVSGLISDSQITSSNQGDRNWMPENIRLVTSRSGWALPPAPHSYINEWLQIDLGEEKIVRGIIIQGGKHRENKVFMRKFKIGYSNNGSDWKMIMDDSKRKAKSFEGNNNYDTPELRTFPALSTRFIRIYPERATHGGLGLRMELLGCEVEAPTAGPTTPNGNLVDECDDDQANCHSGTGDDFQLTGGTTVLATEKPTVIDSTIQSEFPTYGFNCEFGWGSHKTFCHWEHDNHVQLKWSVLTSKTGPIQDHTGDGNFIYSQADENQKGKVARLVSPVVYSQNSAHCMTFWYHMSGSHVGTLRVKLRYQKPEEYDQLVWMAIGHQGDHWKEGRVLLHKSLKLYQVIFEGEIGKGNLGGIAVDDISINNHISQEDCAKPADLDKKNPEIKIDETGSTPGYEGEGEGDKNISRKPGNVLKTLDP

B1: Semaphorin 3A (ligand, UniProt Q14563 21-771, looked up)
chain: NYQNGKNNVPRLKLSYKEMLESNNVITFNGLANSSSYHTFLLDEERSRLYVGAKDHIFSFDLVNIKDFQKIVWPVSYTRRDECKWAGKDILKECANFIKVLKAYNQTHLYACGTGAFHPICTYIEIGHHPEDNIFKLENSHFENGRGKSPYDPKLLTASLLIDGELYSGTAADFMGRDFAIFRTLGHHHPIRTEQHDSRWLNDPKFISAHLISESDNPEDDKVYFFFRENAIDGEHSGKATHARIGQICKNDFGGHRSLVNKWTTFLKARLICSVPGPNGIDTHFDELQDVFLMNFKDPKNPVVYGVFTTSSNIFKGSAVCMYSMSDVRRVFLGPYAHRDGPNYQWVPYQGRVPYPRPGTCPSKTFGGFDSTKDLPDDVITFARSHPAMYNPVFPMNNRPIVIKTDVNYQFTQIVVDRVDAEDGQYDVMFIGTDVGTVLKVVSIPKETWYDLEEVLLEEMTVFREPTAISAMELSTKQQQLYIGSTAGVAQLPLHRCDIYGKACAECCLARDPYCAWDGSACSRYFPTAKRRTRRQDIRNGDPLTHCSDLHHDNHHGHSPEERIIYGVENSSTFLECSPKSQRALVYWQFQRRNEERKEEIRVDDHIIRTDQGLLLRSLQQKDSGNYLCHAVEHGFIQTLLKVTLEVIDTEHLEELLHKDDDGDGSKTKEMSNSMTPSQKVWYRDFMQLINHPNLNTMDEFCEQVWKRDRKQRRQRPGHTPGNSNKWKHLQENKKGRNRRTHEFERAPRSV
notes: Semaphorin 3A (SEMA3A), injected as analyte in SPR; also called SEMA3A; Sema3A
B2: vascular endothelial growth factor A (ligand)
chain: APMAEGGGQNHHEVVKFMDVYQRSYCHPIETLVDIFQEYPDEIEYIFKPSCVPLMRCGGCCNDEGLECVPTEESNITMQIMRIKPHQGQHIGEMSFLQHNKCECRPKKDRARQENPCGPCSERRKHLFVQDPQTCKCSCKNTDSRCKARQLELNERTCRCDKPRR
modifications: Assumed to be VEGF165, the customary recombinant product, because the isoform is not printed. Mature residues 1-165 equal entry residues 207-395 with the exon 6a region 321-345 replaced by the …

Target: T1, recombinant NRP1-derived trap …
Assay: SPR; Biacore T200; trap immobilised by amine coupling on a CM4 chip (100-150 RU); SEMA3A or VEGF-A injected at 12.5-100 nM, 40 ul/min, PBS with 0.025% (v/v) Tween-20; global fit to a one-site Langmuir binding model
Conditions: both partners purified

Binder	Kd [nM]
B1	0.67
B2	4.32
